Here are results for one molecule from paper PMC11889887, “Blockade of αvβ6 and αvβ8 integrins with a chromogranin A-derived peptide inhibits TGFβ activation in tumors and suppresses tumor growth” (Journal of Experimental & Clinical Cancer Research : CR, 2025).

Bridge positions count the residues as written; N and C are the ends. Square brackets hold non-standard residues; d marks the D form. Ends that are not written are not given here. Lys(N3) = [N-]=[N+]=NCCCC[C@H](N)C(=O)O; Pra = C#CC[C@H](N)C(=O)O

In test [1] the target is T1, biotinylated recombinant human αvβ6 integrin (human, UniProt P06756 31-1048; P18564 22-709, biotinylated (which chain is not stated) | biotinylated (which chain is not stated)).
T1 construct: integrin alpha-V, human, recombinant; integrin beta-6, human, recombinant; Detected by HRP-labeled streptavidin through the biotin; also called biotinylated-αvβ6; source: bought: Acros CROBiosystems (cat. IT6-H82E4)
Nature of the test: ELISA; competitive integrin binding assay (taken as Assay 3): plates coated with human latent TGFβ1; various amounts of peptide 5a or 5a-HSA with 10 ng/ml biotinylated αvβ6 or αvβ8 in 20 mM Tris-HCl pH 7.4, 150 mM sodium chloride, 1 mM manganese chloride, 0.05% Tween-20, 0.5% BSA, 1 h; HRP-labeled streptavidin. The note with it: both partners purified. In general terms: ELISA stands for enzyme-linked immunosorbent assay.

For test [2], the target named is T2, biotinylated recombinant human αvβ8 integrin (human, UniProt P06756 31-1048; P26012 43-684, biotinylated (which chain is not stated) | biotinylated (which chain is not stated)).
T2 construct: integrin alpha-V, human, recombinant; integrin beta-8, human, recombinant; Detected by HRP-labeled streptavidin through the biotin; also called biotinylated-αvβ8; source: bought: Acros CROBiosystems (cat. IT8-H82W5)
The test is described as above. The note with it: both partners purified.

On to CFETLRGDLRILSILR[Pra]QNL[Lys(N3)]KELQD-NH2 (triazole 17-21) [peptide 5a], for which the Ki stood at 1.7 nM in test [1] and 3.9 nM in test [2].

One may read the Ki as the equilibrium dissociation constant of an inhibitor or competing ligand from its target.
